{"source": "paper PMC11735809", "about": "“Structural basis of Spliced Leader RNA recognition by the Trypanosoma brucei cap-binding complex” (Nature Communications, 2025)", "key": {"[1]": {"test_system": "TbCBP66* (Trypanosoma brucei)", "test": "EMSA", "settings": "EMSA: 20 mM HEPES pH 7.5, 50 mM NaCl, 5 mM MgCl2, Tween (0.05% in RNA buffer), RNA stock 50 nM mixed 1:1, 30 min on ice, 6% native PAGE 4 C; FP: same buffer, 0."}, "[2]": {"test_system": "TbCBP66* R348E (Trypanosoma brucei)", "test": "fluorescence polarization", "settings": "EMSA: 20 mM HEPES pH 7.5, 50 mM NaCl, 5 mM MgCl2, Tween (0.05% in RNA buffer), RNA stock 50 nM mixed 1:1, 30 min on ice, 6% native PAGE 4 C; FP: same buffer, 0."}, "[3]": {"biological_target": "TAMRA-labeled TbCBP30 peptide comprising residues R34-G60 (Trypanosoma brucei)", "test": "MST; 50 nM N-terminally TAMRA-labeled peptide mixed 1:1 with a serial dilution of TbCBC-dimer; 20 mM HEPES, 250 mM NaCl, 5 mM MgCl, 0.1 % Tween in the peptide buffer; 30 min on ice; Monolith NT.115; binding quantified from the ligand-dependent increase in the initial fluorescence; n = 3"}, "[4]": {"biological_target": "T1, TbCBC-tetramer (TbCBP20-TbCBP110-TbCBP30-TbCBP66) (Trypanosoma brucei, UniProt Q585L4)", "T1 construct": "gene Tb06.28P18.1190; full-length subunits co-expressed in Hi5 insect cells (biGBac), HisTrap and heparin purified, tetramer 230 kDa", "T1 sequence (Q585L4 1-187)": "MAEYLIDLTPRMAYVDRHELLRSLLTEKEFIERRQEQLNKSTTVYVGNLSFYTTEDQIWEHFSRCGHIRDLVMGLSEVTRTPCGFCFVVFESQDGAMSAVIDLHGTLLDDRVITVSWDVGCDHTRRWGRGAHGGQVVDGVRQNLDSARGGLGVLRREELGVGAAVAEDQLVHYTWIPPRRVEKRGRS", "T1 sequence (Q38BU6 1-1004 partner)": "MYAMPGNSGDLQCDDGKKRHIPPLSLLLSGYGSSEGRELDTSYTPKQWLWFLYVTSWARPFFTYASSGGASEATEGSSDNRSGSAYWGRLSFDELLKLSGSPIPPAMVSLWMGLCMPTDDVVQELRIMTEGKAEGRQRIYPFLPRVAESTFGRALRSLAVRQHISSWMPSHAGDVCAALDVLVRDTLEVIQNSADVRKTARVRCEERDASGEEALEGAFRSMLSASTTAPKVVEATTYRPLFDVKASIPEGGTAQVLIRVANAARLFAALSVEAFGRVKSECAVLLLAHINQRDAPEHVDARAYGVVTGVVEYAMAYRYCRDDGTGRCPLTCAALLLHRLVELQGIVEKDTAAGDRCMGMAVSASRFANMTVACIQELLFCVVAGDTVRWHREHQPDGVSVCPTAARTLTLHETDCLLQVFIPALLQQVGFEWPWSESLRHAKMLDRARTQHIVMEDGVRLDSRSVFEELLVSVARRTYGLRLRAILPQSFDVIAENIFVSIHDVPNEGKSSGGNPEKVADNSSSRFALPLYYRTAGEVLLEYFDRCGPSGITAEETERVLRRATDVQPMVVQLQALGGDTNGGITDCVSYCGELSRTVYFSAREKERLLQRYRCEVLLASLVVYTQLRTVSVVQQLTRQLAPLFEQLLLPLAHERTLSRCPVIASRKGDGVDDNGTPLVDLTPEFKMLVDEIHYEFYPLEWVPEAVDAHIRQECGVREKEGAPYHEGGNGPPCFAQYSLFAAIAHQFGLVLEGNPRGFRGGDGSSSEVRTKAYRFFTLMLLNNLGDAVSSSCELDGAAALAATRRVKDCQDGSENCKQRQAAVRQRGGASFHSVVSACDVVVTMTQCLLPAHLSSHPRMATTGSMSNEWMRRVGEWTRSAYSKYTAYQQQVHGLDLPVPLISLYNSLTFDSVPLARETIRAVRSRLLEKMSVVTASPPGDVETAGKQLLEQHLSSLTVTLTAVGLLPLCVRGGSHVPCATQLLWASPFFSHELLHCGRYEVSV", "T1 sequence (Q387Z0 1-270 partner)": "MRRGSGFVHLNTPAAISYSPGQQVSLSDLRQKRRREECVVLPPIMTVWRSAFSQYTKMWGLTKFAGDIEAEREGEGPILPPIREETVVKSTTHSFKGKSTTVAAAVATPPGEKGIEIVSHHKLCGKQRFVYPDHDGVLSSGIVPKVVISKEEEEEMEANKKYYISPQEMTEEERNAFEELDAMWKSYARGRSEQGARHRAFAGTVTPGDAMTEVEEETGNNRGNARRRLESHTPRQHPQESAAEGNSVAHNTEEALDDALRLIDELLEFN", "test": "competition pull-down on immobilised γ-aminophenyl-m7GTP resin, SDS-PAGE", "type": "binding", "settings": "pH 7.5, 200 mM NaCl, 5 mM MgCl2, 4 °C; competitive at the cap site"}, "[5]": {"biological_target": "T1, TbCBC-tetramer (TbCBP20-TbCBP110-TbCBP30-TbCBP66)", "test": "cryo-EM structure, […] Å", "type": "binding", "settings": "2-fold excess of ligand; m7GMP part resolved in the TbCBP20 cap pocket"}}}
{"molecule": "AUUAGAACAGUUUCUGUACUAUAUUG [SL-hairpin_loop (A14-G39)]", "values": [{"measurement": "Kd", "setting": "[1]", "value": 0.39, "unit": "µM"}]}
{"molecule": "AACUAACGCUAUUAUUAGAACAGUUUCUGUACUAUAUUG [OH-SLe 3'-6FAM (39 nt SL RNA exon, FP)]", "values": [{"measurement": "Kd", "setting": "[2]", "value": 9.81, "unit": "µM"}]}
{"molecule": "TbCBC-dimer (TbCBP20-TbCBP110 dimer) (complex)", "values": [{"measurement": "Kd", "setting": "[3]", "value": 0.98, "unit": "µM"}]}
{"molecule": "C[n+]1cn([C@@H]2O[C@H](COP(=O)(O)OP(=O)(O)OP(=O)(O)O)[C@@H](O)[C@H]2O)c2nc(N)[nH]c(=O)c21", "note": "[m^7GTP]", "values": [{"measurement": "competition pull-down on immobilised γ-aminophenyl-m7GTP resin, SDS-PAGE", "setting": "[4]", "value": "m^7GTP competed efficiently with cap4-SL RNA binding to TbCBC"}]}
{"molecule": "C[n+]1cn([C@@H]2O[C@H](COP(=O)(O)OP(=O)(O)OP(=O)(O)OC[C@H]3O[C@@H](n4cnc5c(N)ncnc54)[C@H](O)[C@@H]3O)[C@@H](O)[C@H]2O)c2nc(N)[nH]c(=O)c21", "note": "[m^7GpppA]", "values": [{"measurement": "cryo-EM structure, 2.4 Å", "setting": "[5]", "value": "The m^7GMP portion of the cap-analog is coordinated by TbCBP20"}]}
